Test [1] addresses authentic main protease (M^pro) from SARS-CoV, without tag (SARS-CoV) (UniProt P0C6X7).
For test [2] the target is unchanged. Put plainly: SEC; […]; 40 mM Tris-HCl, 100 mM NaCl, 1 mM DTT, pH 8.0; 0.5 mL/min; […].
In test [3] the target is tagged main protease from SARS-CoV with 34 extra amino acids at the N-terminus (SARS-CoV) (UniProt P0C6X7).

A word on the stoichiometry N: it is a count of units in the complex or per binding partner. In the case of “authentic main protease (M^pro) from SARS-CoV, without tag (from UniProt P0C6X7) (enzyme)”, in test [1], the kcat/Km, FRET-based cleavage assay (Dabcyl/Edans peptide substrate) was found to be 2790 M⁻¹ s⁻¹. Further, in test [2], the stoichiometry N is 2. For “tagged main protease from SARS-CoV with 34 extra amino acids at the N-terminus (from UniProt P0C6X7) (enzyme)”, the kcat/Km, FRET-based cleavage assay (Dabcyl/Edans peptide substrate) in test [3] came out at 17 M⁻¹ s⁻¹.

Values taken from article PMC10304930.
